Earlier results on 3 substances are cited in paper PMC9331257.

The target in data set [1] is PAC1R (Homo sapiens) (UniProt P41586). Nature of the data set: radioligand.
Data set [2] deals with PACAP type II receptor (Homo sapiens) (UniProt P32241). Nature of the data set: radioligand.
In data set [3] the target is PAC1R (Homo sapiens) (UniProt P41586). The experiment in a line: radioligand binding.
Data set [4] deals with PACAP type II receptor (Homo sapiens) (UniProt P32241). Nature of the data set: radioligand binding.
For a further data set, the target named is VPAC1R (Homo sapiens) (UniProt P32241). Nature of the data set: [125I]VIP displacement.
The target of data set [5] is PAC1R (Homo sapiens) (UniProt P41586). Nature of the data set: [125I]Ac-His1-PACAP27 displacement.
The next data set deals with VPAC2R (Homo sapiens) (UniProt P41587). The experiment in a line: [125I]Ac-His1-PACAP27 displacement.
Chain of UniProt P41587 (P41587 24-438): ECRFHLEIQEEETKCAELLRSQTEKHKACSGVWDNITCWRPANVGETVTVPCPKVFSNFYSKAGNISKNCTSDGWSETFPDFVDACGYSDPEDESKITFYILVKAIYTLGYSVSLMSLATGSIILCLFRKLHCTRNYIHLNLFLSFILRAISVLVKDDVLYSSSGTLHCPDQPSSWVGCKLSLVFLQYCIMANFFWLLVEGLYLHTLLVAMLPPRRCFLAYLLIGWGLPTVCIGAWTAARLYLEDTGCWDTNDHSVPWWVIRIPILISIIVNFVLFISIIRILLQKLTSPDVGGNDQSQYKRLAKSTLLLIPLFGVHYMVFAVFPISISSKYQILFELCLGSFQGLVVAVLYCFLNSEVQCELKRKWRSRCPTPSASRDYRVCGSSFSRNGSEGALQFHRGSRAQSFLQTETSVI

Chain of UniProt P41586 (P41586 21-468): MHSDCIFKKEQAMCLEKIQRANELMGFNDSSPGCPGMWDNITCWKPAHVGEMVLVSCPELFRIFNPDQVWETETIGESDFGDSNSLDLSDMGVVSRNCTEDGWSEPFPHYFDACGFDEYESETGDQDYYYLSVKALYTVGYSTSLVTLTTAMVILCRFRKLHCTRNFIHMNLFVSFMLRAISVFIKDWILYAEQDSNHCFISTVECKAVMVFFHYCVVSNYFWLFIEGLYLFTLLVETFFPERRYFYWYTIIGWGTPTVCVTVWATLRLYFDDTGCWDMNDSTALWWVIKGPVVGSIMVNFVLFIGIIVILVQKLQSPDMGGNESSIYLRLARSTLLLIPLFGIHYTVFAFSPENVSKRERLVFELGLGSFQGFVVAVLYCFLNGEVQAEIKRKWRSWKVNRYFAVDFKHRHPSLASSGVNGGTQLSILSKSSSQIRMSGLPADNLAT
Chain of PACAP (P18509 82-129): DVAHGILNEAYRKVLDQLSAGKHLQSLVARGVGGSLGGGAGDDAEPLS
Chain of VIP (P01282 125-152): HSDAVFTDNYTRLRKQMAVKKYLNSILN

With VIP (from UniProt P01282), the values for the Kd (in the data set with PAC1R (Homo sapiens) [1]; in data set [2]) were > 500 nM and 0.5 nM, respectively.

On to PACAP (from UniProt P18509), for which the Kd (with PAC1R (Homo sapiens) [3]; in data set [4]) was 0.5 nM throughout.

For the substance PACAP(6-38) 6-38 (from UniProt P18509), the Ki with VPAC1R (Homo sapiens) was 600 nM; with PAC1R (Homo sapiens) [5] it was 30 nM; with VPAC2R (Homo sapiens) it was 40 nM.
